Source: patent US9206239B2, “Treatment of cancers with immunostimulatory HIV Tat derivative polypeptides” (PIN Pharma, Inc., priority 2009, dated 2015)

What was measured:
TS/A breast cancer cells = test: TS/A breast carcinoma model; type: in vivo, mice; conditions: for primary anti-cancer difference vs control: p<0.01
Protocol: (§1) 4T1 cells, a 6-thioguanine-resistant cell line derived from a BALB/c spontaneous mammary carcinoma was obtained from ATCC; TS/A, a murine adenocarcinoma cell line was provided by Dr. Sandra Demaria (Demaria S. et al. Clin Cancer Res. 11:728-34, 2005); and SM1, the BALB/C-derived mammary carcinoma was kindly was provided by Dr. James Allison, University of California, Berkeley. All tumor cell lines were cultured in DMEM, supplemented with 2 mM L-glutamine, 10 mM HEPES, 150 units/ml penicillin/streptomycin, 10% heat-inactivated FCS (Invitrogen), 50 μM 2-mercaptoethanol (Sigma), and 50 mg/L gentamicin (Lanza).
(§2) BALB/c were injected (SC) with 1×10^4 4T1, 1×10^5 TS/A or 2×10^5 SM1 cells, respectively, in the left mammary pad on day 0. Immunotherapy was performed by directly injecting a Tat derivative into the right flank at 0, 7, 12, and 17 days after establishment of tumors. The control group received PBS injection. […] Tumor burden (tumor volume) was measured and recorded three times weekly. Animals were sacrificed when tumors reached a volume of 15 mm in diameter and the tumors harvested and weighed.

4T1 breast tumor cells = test: 4T1 breast tumor growth in BALB/c mice; type: in vivo
Excerpt: Female BALB/c mice 6 to 8 weeks old were purchased from the Jackson Laboratory (Bar Harbor, […].). Mice were acclimated for at least 1 week before use. Mice were kept in pathogen-free conditions at the Animal Maintenance Facility of the Columbia University of Medical Center and all experiments were approved by the Institutional Animal Care and Use Committee of Columbia University of Medical Center.
as §1, §2
The therapeutic effect of systemic administration of synthetic, Tat-derived compositions in murine models of breast cancer was investigated. To compare the relative protection conferred by a small panel of different derivatives against primary breast tumor growth, female BALB/c mice were injected with 1×10^4 4T1 breast tumor cells SC into the mammary pad, and then treated with 400 ng partially-purified Tat derivatives at day 0, 7, 14 and 21 (SC injection in PBS) into the draining axillary lymph nodes.

Human monocytes = test: CD86 expression on human monocytes cultured with Tat derivative; type: cell-based; conditions: human monocytes cultured 24-28 hours; compared with ISS (TLR) or LPS
Protocol: Human monocytes were cultured for 24-28 hours with a Tat derivative (Nani-P2), an immunostimulatory sequence (ISS) of a toll-like receptor (TLR) (FIG. 1) or lipopolysaccharide (LPS) (FIG. 2) and the cells were then washed and stained with fluorescent-labeled CD86.

SM1 breast cancer cells = test: SM1 breast carcinoma model; type: in vivo, mice
Protocol: as §1, §2

[1] = Toxicity observation in treated mice; type: in vivo; conditions: SC or IV administration of 40 ng, multiple trials and dosing schedules

B1: Nani-P2: HIV Tat derivative polypeptide, SEQ ID NO: 3; derivatized Tat amino terminus from an African Green Monkey variant SIV (protein)
chain: MDPKGEEDQDVSHQDLIKQYRKPRTACNNCYCKKCCFHCYACFLRKGLGITYHAFRTRRKKIASADRIPVPQQSISIRGRDSQTTQESQKKVEEQAKANLRISRKNLGDETRGPVGAGN
modifications: Nani-P2 modified HIV Tat sequence
notes: derivatized Tat amino terminus from an African Green Monkey variant SIV
- suppression of growth (TS/A breast cancer cells; 0.4 ng SC): ~50%
- primary anti-cancer difference vs control (TS/A breast cancer cells; 40 ng SC): highly significant
- total remission rate (TS/A breast cancer cells; at 30 days): 40%
- primary anti-cancer difference vs control (TS/A breast cancer cells; lowest dose (0.4 ng SC)): highly significant
- tumor burden compared to control mice receiving PBS (4T1 breast tumor cells; 400 ng partially-purified derivative SC day 0, 7, 14, 21, apparent from day 15 (p<0.05)): significantly reduced tumor burden
- decrease of tumor burden on average (4T1 breast tumor cells; SC therapy initiated on day 0 after tumor cell injection): 53%
- difference in primary tumor burden between Nani-P2 and Nani-P1-treated tumors (4T1 breast tumor cells; day 21 (final dosing), 400 ng SC, p<0.01): 18 mm^3
- anti-tumor efficacy on increasing the dose (4T1 breast tumor cells; dose increased to 400 ng and 2 μg (data not shown)): no further anti-tumor efficacy
- expression of CD86 (Human monocytes): higher expression of CD86 than either ISS (TLR) or LPS
- difference in primary tumor growth between control and treated animals (SM1 breast cancer cells; 40 ng SC days 0, 7, 14, 21, p<0.01): highly statistically significant
- animals remaining in remission (SM1 breast cancer cells; 28 days following implant, one week after termination of the regimen): 40%
- animals in which tumor growth was suppressed (SM1 breast cancer cells; for 16 days, 40 ng SC days 0, 7, 14, 21): 100%
- toxicity [1]: no toxicity was observed
